According to publication PMC5942779, “Identification of a peptide inhibitor for the histone methyltransferase WHSC1” (PLoS ONE, 2018):

Columns and labels:
WHSC1L1 1054–1285 = WHSC1L1 1054–1285 (UniProt O96028)
WHSC1 941–1240 = WHSC1 941–1240 (UniProt O96028)
Sequence of WHSC1 941–1240 (O96028 941-1240): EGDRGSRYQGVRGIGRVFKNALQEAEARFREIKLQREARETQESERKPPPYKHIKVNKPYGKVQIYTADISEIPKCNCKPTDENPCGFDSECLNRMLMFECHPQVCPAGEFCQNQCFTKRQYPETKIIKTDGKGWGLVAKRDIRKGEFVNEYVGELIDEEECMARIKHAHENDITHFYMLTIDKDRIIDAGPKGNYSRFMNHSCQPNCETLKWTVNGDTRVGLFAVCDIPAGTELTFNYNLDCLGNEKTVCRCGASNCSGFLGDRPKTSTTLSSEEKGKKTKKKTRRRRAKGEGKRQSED

Sequence of WHSC1L1 1054–1285 (O96028 1054-1285): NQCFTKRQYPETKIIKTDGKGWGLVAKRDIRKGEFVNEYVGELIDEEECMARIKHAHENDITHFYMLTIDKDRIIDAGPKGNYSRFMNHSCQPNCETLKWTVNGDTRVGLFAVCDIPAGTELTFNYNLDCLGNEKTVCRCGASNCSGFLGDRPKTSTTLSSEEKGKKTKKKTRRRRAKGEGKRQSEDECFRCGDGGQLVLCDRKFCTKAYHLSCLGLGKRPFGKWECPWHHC

## Ac-GVARI-NH2 [PTD3]
WHSC1L1 1054–1285
  Biochemical IC50: inhibition of 3H-methyl transfer from SAM to the biotinylated H4 peptide by WHSC1L1 1054–1285: > 1000 µM
WHSC1 941–1240
  Biochemical IC50: inhibition of 3H-methyl transfer from SAM to the biotinylated H4 peptide by WHSC1 941–1240: 640 µM
